Where no end group is shown, it is not given here. The star is where a group is joined. Biotin = O=C1N[C@H]2[C@H](CS[C@H]2CCCCC(=O)*)N1
Assays:
[1] = biological target: pHrodo-labeled tau P301L soluble oligomer, P10636; assay: cell-based or functional assay
[2] = biological target: T1, recombinant human 4R0N tau (human, UniProt P10636 2-758); assay: SPR Biacore; antibody captured by anti-mouse antibody; tau as analyte; global 1:1 fit
T1 construct: also called recombinant 4R0N human tau; P10636-6
Procedure: Surface plasmon resonance (SPR) analysis using Biacore was performed by immobilizing an anti-mouse (GE Lifesciences) antibody to a CM3 chip with EDC/NHS. Antibodies were then captured to the anti-mouse surface to equivalent levels. Regeneration was performed with 2 30 s injections of 10 mM Glycine pH 1.7. Various concentrations ranging from 500 to 0.122 nM, diluted in […] dilutions, of recombinant human 4R0N tau were flowed over the sensor for a 150s association phase and 300 s dissociation phase. Data was blank subtracted to both an irrelevant sensor not containing test antibody to account for irrelevant binding to the prepared sensor surface, and to the mobile phase vehicle to account for the dissociation of test antibody from the anti-mouse capture. Data was then analyzed with onboard evaluation software using a global 1:1 fit.

[3] = biological target: T2, biotinylated 15 amino acid tau peptide, residues 302-316 (human); assay: ELISA, biotinylated peptide on streptavidin plate
T2 peptide: Biotin-GGGSVQIVYKPVDLS
Procedure: (§1) Peptides contained 15 amino acids, with a 5 amino acid overlap. To enable binding to a streptavidin surface, peptides also contained an N-terminal biotin. Peptides were incubated on a streptavidin-coated plate, and the plate was blocked with 1% BSA in 1× PBS. After washing, antibodies were incubated on the plates for 1 hour at room temperature and washed. Plates were then coated with goat anti-mouse horseradish peroxidase (HRP), and washed. Plates were developed with OPD, and absorbance was read at 490 nm. […]

[4] = biological target: T3, biotinylated 15 amino acid tau peptide, residues 383-397 (human); assay: ELISA, biotinylated peptide on streptavidin plate
T3 peptide: Biotin-KAKTDHGAEIVYKSP
Procedure: as §1

human tau oligomers [5] = biological target: T4, human tau oligomers (human, UniProt P10636-6 2-383, limits assumed); assay: cell-based or functional assay
human tau oligomers [6] = biological target: T4, human tau oligomers; assay: cell-based or functional assay; remark: listed apart in the source

Sequence of pHrodo-labeled tau P301L soluble oligomer, P10636 (P10636 other isoform, or with tags, fused parts or gaps P301L P301L): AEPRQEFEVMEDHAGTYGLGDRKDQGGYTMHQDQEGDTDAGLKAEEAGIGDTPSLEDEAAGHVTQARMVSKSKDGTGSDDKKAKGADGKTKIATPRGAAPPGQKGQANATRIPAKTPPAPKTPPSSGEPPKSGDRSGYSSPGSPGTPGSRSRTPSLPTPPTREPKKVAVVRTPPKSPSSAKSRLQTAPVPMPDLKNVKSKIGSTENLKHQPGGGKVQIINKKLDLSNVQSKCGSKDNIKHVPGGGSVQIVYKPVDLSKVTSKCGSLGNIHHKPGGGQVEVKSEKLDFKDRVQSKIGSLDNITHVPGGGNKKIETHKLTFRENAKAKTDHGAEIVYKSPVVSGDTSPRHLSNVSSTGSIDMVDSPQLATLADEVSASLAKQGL
T1 sequence (P10636 other isoform, or with tags, fused parts or gaps limits assumed): as the sequence (P10636 other isoform, or with tags, fused parts or gaps P301L P301L) above
T4 sequence (P10636 other isoform, or with tags, fused parts or gaps limits assumed): as the sequence (P10636 other isoform, or with tags, fused parts or gaps P301L P301L) above

internalized pHrodo-tau in B103 cells (FACS), antibody at 0.061 µg/mL (% of maximum signal) [1] | internalized pHrodo-tau in B103 cells (FACS), antibody at 0.244 µg/mL (% of maximum signal) [1] | internalized pHrodo-tau in B103 cells (FACS), antibody at 0.98 µg/mL (% of maximum signal) [1] | internalized pHrodo-tau in B103 cells (FACS), antibody at 3.9 µg/mL (% of maximum signal) [1] | internalized pHrodo-tau in B103 cells (FACS), antibody at 15.625 µg/mL (% of maximum signal) [1] | internalized pHrodo-tau in B103 cells (FACS), antibody at 62.5 µg/mL (% of maximum signal) [1] | Kd [2] | koff [2] | kon [2] | binding result [3] | binding result [4] | LDH released by primary neurons with tau oligomers, antibody at 0.2 molar equivs (human tau oligomers [6]) | LDH released by primary neurons with tau oligomers, antibody at 0.33 molar equivs (human tau oligomers [6]) | LDH released by primary neurons with tau oligomers, antibody at 1 molar equivs (human tau oligomers [6]) | LDH released by primary neurons with tau oligomers, antibody at 3 molar equivs (human tau oligomers [6]) | Binder | MTT viability of primary neurons with tau oligomers, antibody at 0.2 molar equivs (human tau oligomers [5]) | MTT viability of primary neurons with tau oligomers, antibody at 0.33 molar equivs (human tau oligomers [5]) | MTT viability of primary neurons with tau oligomers, antibody at 1 molar equivs (human tau oligomers [5]) | MTT viability of primary neurons with tau oligomers, antibody at 3 molar equivs (human tau oligomers [5]) | MTT viability of primary neurons with tau oligomers, antibody at 5 molar equivs (human tau oligomers [5]) | further results
79.7 | 66 | 67.8 | 63.1 | 53.2 | 48.4 |  |  |  |  |  |  |  |  |  | mouse 14H3 antibody (antibody, mouse IgG2a, V domains shown, here or on the partner: pHrodo label) VH: QVTLKESGPGILQPSQTLSLTCSFSGFSLSTYGMGVGWIRQPSGKGLEWLANIWWDDIKYYNAALKSRLTISKDTSKNQVFLKIASVDTADTATYYCARNVDYWGQGTTLTVSS VL: DVVMTQTPLSLPVSLGDQASISCRSSQSLVHSNGNTFLHWYLQKPGQSPKLLIYKVSNRFSGVPDRFSGSGSGTDFTLKISRVEAEDLGVYFCSQSTLVPWTFGGGTKLEIK |  |  |  |  |  | 
 |  |  |  |  |  | 0.202 nM | 0.00153 s⁻¹ | 7.6e+06 M⁻¹ s⁻¹ | binds | binds |  |  |  |  | mouse 14H3 antibody (antibody, mouse IgG2a, V domains shown, also called m14H3) VH: QVTLKESGPGILQPSQTLSLTCSFSGFSLSTYGMGVGWIRQPSGKGLEWLANIWWDDIKYYNAALKSRLTISKDTSKNQVFLKIASVDTADTATYYCARNVDYWGQGTTLTVSS VL: DVVMTQTPLSLPVSLGDQASISCRSSQSLVHSNGNTFLHWYLQKPGQSPKLLIYKVSNRFSGVPDRFSGSGSGTDFTLKISRVEAEDLGVYFCSQSTLVPWTFGGGTKLEIK |  |  |  |  |  | 
79.8 | 78.6 | 63.9 | 36.8 | 32.4 | 30.6 |  |  |  |  |  |  |  |  |  | mouse 17C12 antibody (antibody, mouse IgG2a, V domains shown, here or on the partner: pHrodo label) VH: KIQLQQSGAELVRPGASVKLSCTASAFNIKDDYMNWVKQRPERGLEWIGWIDPENGDTKYASKFQGKATMTADTSSNTAYLQLSSLTSEDTAVYYCTTSNGWGQGTLVTVSA VL: DVVMTQTPLTLSVTIGQPASISCTSSQSLLHSNRKTYLHWLLQRPGQSPKLLIYLVSKLESGVPDRFSGSGSGTDFTLKISRVEAEDLGVYYCLQTTHFPRTFGGGTKLEIK |  |  |  |  |  | 
78.2 | 78.6 | 69.7 | 42.6 | 36.6 | 37.3 |  |  |  |  |  |  |  |  |  | mouse 12C4 antibody (antibody, mouse IgG2a, V domains shown, here or on the partner: pHrodo label) VH: EVQLQQSGAELVRPGASVKLSCTASGFNIKDDYMNWVRQRPERGLEWIGWIDPENGDTAYASKFQGKATMTADTSSNTAYLQFSSLTSEDSAVYYCTTSNGWGQGTLVTVSA VL: DIVMTQAAFSNPVTLGTSASISCRSSKSLLHSNGITYLYWYLQKPGQSPQLLIYQMSNLASGVPDRFSSSGSGTDFTLRISRVEAEDVGVYYCAQNLELPLTFGAGTKLELK |  |  |  |  |  | 
 |  |  |  |  |  | 0.482 nM | 0.00194 s⁻¹ | 4.03e+06 M⁻¹ s⁻¹ | binds | binds |  |  |  |  | mouse 17C12 antibody (antibody, mouse IgG2a, V domains shown, also called m17C12) VH: KIQLQQSGAELVRPGASVKLSCTASAFNIKDDYMNWVKQRPERGLEWIGWIDPENGDTKYASKFQGKATMTADTSSNTAYLQLSSLTSEDTAVYYCTTSNGWGQGTLVTVSA VL: DVVMTQTPLTLSVTIGQPASISCTSSQSLLHSNRKTYLHWLLQRPGQSPKLLIYLVSKLESGVPDRFSGSGSGTDFTLKISRVEAEDLGVYYCLQTTHFPRTFGGGTKLEIK |  |  |  |  |  | 

Continued, binder first:

Binder | internalized pHrodo-tau in B103 cells (FACS), antibody at 0.061 µg/mL (% of maximum signal) [1] | internalized pHrodo-tau in B103 cells (FACS), antibody at 0.244 µg/mL (% of maximum signal) [1] | internalized pHrodo-tau in B103 cells (FACS), antibody at 0.98 µg/mL (% of maximum signal) [1] | internalized pHrodo-tau in B103 cells (FACS), antibody at 3.9 µg/mL (% of maximum signal) [1] | internalized pHrodo-tau in B103 cells (FACS), antibody at 15.625 µg/mL (% of maximum signal) [1] | internalized pHrodo-tau in B103 cells (FACS), antibody at 62.5 µg/mL (% of maximum signal) [1] | Kd [2] | koff [2] | kon [2] | binding result [3] | binding result [4] | LDH released by primary neurons with tau oligomers, antibody at 0.2 molar equivs (human tau oligomers [6]) | LDH released by primary neurons with tau oligomers, antibody at 0.33 molar equivs (human tau oligomers [6]) | LDH released by primary neurons with tau oligomers, antibody at 1 molar equivs (human tau oligomers [6]) | LDH released by primary neurons with tau oligomers, antibody at 3 molar equivs (human tau oligomers [6]) | MTT viability of primary neurons with tau oligomers, antibody at 0.2 molar equivs (human tau oligomers [5]) | MTT viability of primary neurons with tau oligomers, antibody at 0.33 molar equivs (human tau oligomers [5]) | MTT viability of primary neurons with tau oligomers, antibody at 1 molar equivs (human tau oligomers [5]) | MTT viability of primary neurons with tau oligomers, antibody at 3 molar equivs (human tau oligomers [5]) | MTT viability of primary neurons with tau oligomers, antibody at 5 molar equivs (human tau oligomers [5]) | further results
mouse 10C12 antibody (antibody, mouse IgG2a, V domains shown, here or on the partner: pHrodo label) VH: EVQLQQSGAELVRPGASVKLSCTASGFNIKDDYMNWVKQRPERGLEWIGWIDPENGDTEYASKFQGKATMTADTSSNTAYLQFSSLTSEDTAVYYCTTSNGWGQGTLVTVST VL: DIVMTQAAFSNPVTLGTSASISCRSSKSLLHSNGITYLYWYLQKPGQSPQLLIYQMSNLASGVPDRFSSSGSGTDFTLRISRVEAEDVGVYYCAQNLELPLTFGAGTKLELK | 86.7 | 9.09 | 90.5 | 55.2 | 38.9 | 34.5 |  |  |  |  |  |  |  |  |  |  |  |  |  |  | 
mouse 10C12 antibody (antibody, mouse IgG2a, V domains shown, also called m10C12) VH: EVQLQQSGAELVRPGASVKLSCTASGFNIKDDYMNWVKQRPERGLEWIGWIDPENGDTEYASKFQGKATMTADTSSNTAYLQFSSLTSEDTAVYYCTTSNGWGQGTLVTVST VL: DIVMTQAAFSNPVTLGTSASISCRSSKSLLHSNGITYLYWYLQKPGQSPQLLIYQMSNLASGVPDRFSSSGSGTDFTLRISRVEAEDVGVYYCAQNLELPLTFGAGTKLELK |  |  |  |  |  |  | 0.375 nM | 0.00245 s⁻¹ | 6.53e+06 M⁻¹ s⁻¹ | binds | binds | 140 % of control | 129 % of control | 109 % of control | 101 % of control | 47.1 % of control | 51.3 % of control | 56.4 % of control | 69.2 % of control | 86.8 % of control | LDH released by primary neurons with tau oligomers, antibody at 5 molar equivs (human tau oligomers [6]): 95.1 % of control
mouse 2D11 antibody (antibody, mouse IgG2a, V domains shown) VH: EVQLQQSGAELVRPGASVKLSCTASGFNIKDDYMNWVKQRPERGLEWIGWIDPENGDTEYASKFQGKATMTADTSSNTAYLQFSSLTSEDTAVYYCTTSNGWGQGTLVTVST VL: DIVMTQAAFSNPVTLGTSASISCRSSKSLLHSNGITYLYWYLQKPGQSPQLLIYQMSNLASGVPDRFSSSGSGTDFTLRISRVEAEDVGVYYCAQNLELPLTFGAGTKLELK |  |  |  |  |  |  | 0.318 nM | 0.00221 s⁻¹ | 6.93e+06 M⁻¹ s⁻¹ | binds | binds | 177 % of control | 148 % of control | 131 % of control | 109 % of control | 52.8 % of control | 59.5 % of control | 50.9 % of control | 64 % of control | 92.2 % of control | LDH released by primary neurons with tau oligomers, antibody at 5 molar equivs (human tau oligomers [6]): 115 % of control
mouse 9F5 antibody (antibody, mouse IgG1, V domains shown, also called m9F5; murine 9F5) VH: EVQLQQSGAELVRPGASVKLSCTASGFNIKDDYMNWVKQRPERGLEWIGWIDPENGDTEYASKFQGKATMTADTSSNTAYLQFSSLTSEDTAVYYCTTSNGWGQGTLVTVST VL: DIVMTQAAFSNPVTLGTSASISCRSSKSLLHSNGITYLYWYLQKPGQSPQLLIYQMSNLASGVPDRFSSSGSGTDFTLRISRVEAEDVGVYYCAQNLELPLTFGAGTKLELK |  |  |  |  |  |  | 0.35 nM | 0.00224 s⁻¹ | 6.39e+06 M⁻¹ s⁻¹ | binds | binds | 155 % of control | 152 % of control | 116 % of control | 95.9 % of control | 47.4 % of control | 58 % of control | 64.9 % of control | 92.6 % of control | 93.1 % of control | LDH released by primary neurons with tau oligomers, antibody at 5 molar equivs (human tau oligomers [6]): 91.4 % of control
mouse 2D11 antibody (antibody, mouse IgG2a, V domains shown, here or on the partner: pHrodo label) VH: EVQLQQSGAELVRPGASVKLSCTASGFNIKDDYMNWVKQRPERGLEWIGWIDPENGDTEYASKFQGKATMTADTSSNTAYLQFSSLTSEDTAVYYCTTSNGWGQGTLVTVST VL: DIVMTQAAFSNPVTLGTSASISCRSSKSLLHSNGITYLYWYLQKPGQSPQLLIYQMSNLASGVPDRFSSSGSGTDFTLRISRVEAEDVGVYYCAQNLELPLTFGAGTKLELK | 71.5 | 79.5 | 62.7 | 43 | 28.6 | 28.4 |  |  |  |  |  |  |  |  |  |  |  |  |  |  | 
